From the supplement of paper PMC11246515
± gives the standard deviation of the averaged measurements.

Assay: total protein half-life in vivo (active degradation + dilution); higher = more stable protein
[1] = E. coli NCM3722 delta-clpP delta-lon delta-hslV, growth: N-lim chemostat, doubling time 6 h
[2] = E. coli NCM3722 delta-clpP, growth: N-lim chemostat, doubling time 6 h
[3] = E. coli NCM3722 delta-hslV, growth: N-lim chemostat, doubling time 6 h
[4] = E. coli NCM3722 delta-lon, growth: N-lim chemostat, doubling time 6 h
[5] = E. coli NCM3722 delta-smpB, growth: N-lim chemostat, doubling time 6 h
[6] = wild type E. coli NCM3722, growth: C-lim chemostat, doubling time 6 h
[7] = wild type E. coli NCM3722, growth: N-lim chemostat, doubling time 6 h
[8] = wild type E. coli NCM3722, growth: N-lim chemostat, doubling time 12 h
[9] = wild type E. coli NCM3722, growth: P-lim chemostat, doubling time 6 h
[10] = wild type E. coli NCM3722, growth: P-lim chemostat, doubling time 12 h
[11] = wild type E. coli NCM3722, growth: C-lim chemostat, doubling time 3 h
[12] = wild type E. coli NCM3722, growth: C-lim chemostat, doubling time 12 h

Sequence	total protein half-life in vivo [1] [h]	total protein half-life in vivo [2] [h]	total protein half-life in vivo [3] [h]	total protein half-life in vivo [4] [h]	total protein half-life in vivo [5] [h]	total protein half-life in vivo [6] [h]	total protein half-life in vivo [7] [h]	total protein half-life in vivo [8] [h]	total protein half-life in vivo [9] [h]	total protein half-life in vivo [10] [h]	total protein half-life in vivo [11] [h]	total protein half-life in vivo [12] [h]
MTDNPNKKTFWDKVHLDPTMLLILLALLVYSALVIWSASGQDIGMMERKIGQIAMGLVIMVVMAQIPPRVYEGWAPYLYIICIILLVAVDAFGAISKGAQRWLDLGIVRFQPSEIAKIAVPLMVARFINRDVCPPSLKNTGIALVLIFMPTLLVAAQPDLGTSILVALSGLFVLFLSGLSWRLIGVAVVLVAAFIPILWFFLMHDYQRQRVMMLLDPESDPLGAGYHIIQSKIAIGSGGLRGKGWLHGTQSQLEFLPERHTDFIFAVLAEELGLVGILILLALYILLIMRGLWIAARAQTTFGRVMAGGLMLILFVYVFVNIGMVSGILPVVGVPLPLVSYGGSALIVLMAGFGIVMSIHTHRKMLSKSV [P0ABG7]	6.32 ± 0.84	6.24 ± 0.34	5.73 ± 0.093	5.59 ± 0.48	5.99 ± 0.59	5.94 ± 0.34	6.47 ± 0.14	11.5 ± 1.2	5.99 ± 0.21	11.9 ± 0.4		
MTDNTRLRIAMQKSGRLSDDSRELLARCGIKINLHTQRLIAMAENMPIDILRVRDDDIPGLVMDGVVDLGIIGENVLEEELLNRRAQGEDPRYFTLRRLDFGGCRLSLATPVDEAWDGPLSLNGKRIATSYPHLLKRYLDQKGISFKSCLLNGSVEVAPRAGLADAICDLVSTGATLEANGLREVEVIYRSKACLIQRDGEMEESKQQLIDKLLTRIQGVIQARESKYIMMHAPTERLDEVIALLPGAERPTILPLAGDQQRVAMHMVSSETLFWETMEKLKALGASSILVLPIEKMME	3.9 ± 1	2.97 ± 0.12	3.093 ± 0.014	5.11 ± 1.9	3.38 ± 0.042	4.94 ± 0.53	3.29 ± 0.1	4.73 ± 0.14	5.32 ± 0.63	11.2 ± 0.66	2.99 ± 0.52	7.58 ± 0.31
MTDNTYQPAKVWTWDKSAGGAFANINRPVSGPTHEKTLPVGKHPLQLYSLGTPNGQKVTIMLEELLALGVTGAEYDAWLIRIGDGDQFSSGFVEVNPNSKIPALRDHTHNPPIRVFESGSILLYLAEKFGYFLPQDLAKRTETMNWLFWLQGAAPFLGGGFGHFYHYAPVKIEYAINRFTMEAKRLLDVLDKQLAQHKFVAGDEYTIADMAIWPWFGNVVLGGVYDAAEFLDAGSYKHVQRWAKEVGERPAVKRGRIVNRTNGPLNEQLHERHDASDFETNTEDKRQG	5.11 ± 0.38	5.1 ± 0.095	4.77 ± 0.093	5.02 ± 0.099	4.78 ± 0.57	5.63 ± 0.16	5.31 ± 0.2	9.72 ± 3.6	5.6 ± 0.21	11.8 ± 0.8	3.18 ± 0.21	9.78 ± 2.2
MTDQSHQCVIIGIAGASASGKSLIASTLYRELREQVGDEHIGVIPEDCYYKDQSHLSMEERVKTNYDHPSAMDHSLLLEHLQALKRGSAIDLPVYSYVEHTRMKETVTVEPKKVIILEGILLLTDARLRDELNFSIFVDTPLDICLMRRIKRDVNERGRSMDSVMAQYQKTVRPMFLQFIEPSKQYADIIVPRGGKNRIAIDILKAKISQFFE [P0A8F4]	5.42 ± 0.4	4.6 ± 0.34		4.87 ± 1.3	4.376 ± 0.027	5.074 ± 0.037	4.36 ± 0.07	6.72 ± 0.17	5.11 ± 0.44	9.61 ± 2.1	2.86 ± 0.035	9.37 ± 0.41
MTDVLLCVGNSMMGDDGAGPLLAEKCAAAPKGNWVVIDGGSAPENDIVAIRELRPTRLLIVDATDMGLNPGEIRIIDPDDIAEMFMMTTHNMPLNYLIDQLKEDIGEVIFLGIQPDIVGFYYPMTQPIKDAVETVYQRLEGWEGNGGFAQLAVEEE [P0AEV9]	4.89	4.16	3.67 ± 0.094	4.17	3.72 ± 0.15	5.01 ± 0.2	4.6	6.23		9.42 ± 0.22	3.29 ± 0.42	8.74
MTEHTSSYYAASANKYAPFDTLNESITCDVCVVGGGYTGLSSALHLAEAGFDVVVLEASRIGFGASGRNGGQLVNSYSRDIDVIEKSYGMDTARMLGSMMFEGGEIIRERIKRYQIDCDYRPGGLFVAMNDKQLATLEEQKENWERYGNKQLELLDANAIRREVASDRYTGALLDHSGGHIHPLNLAIGEADAIRLNGGRVYELSAVTQIQHTTPAVVRTAKGQVTAKYVIVAGNAYLGDKVEPELAKRSMPCGTQVITTERLSEDLARSLIPKNYCVEDCNYLLDYYRLTADNRLLYGGGVVYGARDPDDVERLVVPKLLKTFPQLKGVKIDYRWTGNFLLTLSRMPQFGRLDTNIYYMQGYSGHGVTCTHLAGRLIAELLRGDAERFDAFANLPHYPFPGGRTLRVPFTAMGAAYYSLRDRLGV		6.23	5.96 ± 0.34	3.84 ± 1.7		6.7	1.81	6.25 ± 7.7			0.265	4.55
